Assay results: the supplement of paper PMC11246515
± gives the standard deviation of the averaged measurements.

Assay: total protein half-life in vivo (active degradation + dilution); higher = more stable protein
[1] = E. coli NCM3722 delta-clpP, growth: N-lim chemostat, doubling time 6 h
[2] = E. coli NCM3722 delta-hslV, growth: N-lim chemostat, doubling time 6 h
[3] = E. coli NCM3722 delta-lon, growth: N-lim chemostat, doubling time 6 h
[4] = E. coli NCM3722 delta-smpB, growth: N-lim chemostat, doubling time 6 h
[5] = wild type E. coli NCM3722, growth: C-lim chemostat, doubling time 3 h
[6] = wild type E. coli NCM3722, growth: C-lim chemostat, doubling time 6 h
[7] = wild type E. coli NCM3722, growth: C-lim chemostat, doubling time 12 h
[8] = wild type E. coli NCM3722, growth: N-lim chemostat, doubling time 6 h
[9] = wild type E. coli NCM3722, growth: N-lim chemostat, doubling time 12 h
[10] = wild type E. coli NCM3722, growth: P-lim chemostat, doubling time 6 h
[11] = wild type E. coli NCM3722, growth: P-lim chemostat, doubling time 12 h
[12] = E. coli NCM3722 delta-clpP delta-lon delta-hslV, growth: N-lim chemostat, doubling time 6 h

| Sequence | total protein half-life in vivo [1] [h] | total protein half-life in vivo [2] [h] | total protein half-life in vivo [3] [h] | total protein half-life in vivo [4] [h] | total protein half-life in vivo [5] [h] | total protein half-life in vivo [6] [h] | total protein half-life in vivo [7] [h] | total protein half-life in vivo [8] [h] | total protein half-life in vivo [9] [h] | total protein half-life in vivo [10] [h] | total protein half-life in vivo [11] [h] | total protein half-life in vivo [12] [h] |
| --- | --- | --- | --- | --- | --- | --- | --- | --- | --- | --- | --- | --- |
| MARRILVVEDEAPIREMVCFVLEQNGFQPVEAEDYDSAVNQLNEPWPDLILLDWMLPGGSGIQFIKHLKRESMTRDIPVVMLTARGEEEDRVRGLETGADDYITKPFSPKELVARIKAVMRRISPMAVEEVIEMQGLSLDPTSHRVMAGEEPLEMGPTEFKLLHFFMTHPERVYSREQLLNHVWGTNVYVEDRTVDVHIRRLRKALEPGGHDRMVQTVRGTGYRFSTRF [P0AFJ5] | 4.76 ± 0.81 | 3.79 ± 1.1 | 5.36 ± 0.14 | 4.52 ± 0.53 | 2.93 ± 0.28 | 5.33 ± 0.14 | 8.01 ± 1.2 | 4.51 ± 0.3 | 8.09 | 6.11 ± 1 | 11.3 ± 0.5 |  |
| MASQLTDAFARKFYYLRLSITDVCNFRCTYCLPDGYKPSGVTNKGFLTVDEIRRVTRAFARLGTEKVRLTGGEPSLRRDFTDIIAAVRENDAIRQIAVTTNGYRLERDVASWRDAGLTGINVSVDSLDARQFHAITGQDKFNQVMAGIDAAFEAGFEKVKVNTVLMRDVNHHQLDTFLNWIQHRPIQLRFIELMETGEGSELFRKHHISGQVLRDELLRRGWIHQLRQRSDGPAQVFCHPDYAGEIGLIMPYEKDFCATCNRLRVSSIGKLHLCLFGEGGVNLRDLLEDDTQQQALEARISAALREKKQTHFLHQNNTGITQNLSYIGG | 1.83 ± 0.45 | 0.963 ± 0.26 | 1.07 ± 0.34 | 0.9113 ± 0.009 | 0.618 ± 0.051 | 1.11 ± 0.23 | 1.92 ± 0.54 | 1.03 | 1.81 ± 0.17 | > 8 | 2.39 ± 0.45 | 3.3 ± 0.76 |
| MASTARSLRYALAILTTSLVTPSVWAHAHLTHQYPAANAQVTAAPQAITLNFSEGVETGFSGAKITGPKNENIKTLPAKRNEQDQKQLIVPLADSLKPGTYTVDWHVVSVDGHKTKGHYTFSVK [P0AA57] |  | > 8 | 5.82 | 4.84 | 3.06 | 5.46 ± 0.25 | 9.96 ± 0.3 | 5.82 ± 0.43 | 9.82 ± 0.3 | 4.82 | 9.37 ± 0.95 | 5.53 |
| MASTFTSDTLPADHKAAIRQMKHALRAQLGDVQQIFNQLSDDIATRVAEINALKAQGDAVWPVLSYADIKAGHVTAEQREQIKRRGCAVIKGHFPREQALGWDQSMLDYLDRNRFDEVYKGPGDNFFGTLSASRPEIYPIYWSQAQMQARQSEEMANAQSFLNRLWTFESDGKQWFNPDVSVIYPDRIRRRPPGTTSKGLGAHTDSGALERWLLPAYQRVFANVFNGNLAQYDPWHAAHRTEVEEYTVDNTTKCSVFRTFQGWTALSDMLPGQGLLHVVPIPEAMAYVLLRPLLDDVPEDELCGVAPGRVLPVSEQWHPLLIEALTSIPKLEAGDSVWWHCDVIHSVAPVENQQGWGNVMYIPAAPMCEKNLAYAHKVKAALEKGASPGDFPREDYETNWEGRFTLADLNIHGKRALGMDV | 2.54 ± 0.23 | 2.4687 ± 0.002 | 2.95 ± 0.21 | 2.62 ± 0.082 | 2.7 ± 0.11 | 4.34 ± 1 | 3.99 ± 0.74 | 2.526 ± 0.014 | 3.68 ± 0.21 | 4.563 ± 0.02 | 7.6 ± 0.48 | 3.33 ± 0.48 |
| MATAKKITIHDVALAAGVSVSTVSLVLSGKGRISTATGERVNAAIEELGFVRNRQASALRGGQSGVIGLIVRDLSAPFYAELTAGLTEALEAQGRMVFLLHGGKDGEQLAQRFSLLLNQGVDGVVIAGAAGSSDDLRRMAEEKAIPVIFASRASYLDDVDTVRPDNMQAAQLLTEHLIRNGHQRIAWLGGQSSSLTRAERVGGYCATLLKFGLPFHSDWVLECTSSQKQAAEAITALLRHNPTISAVVCYNETIAMGAWFGLLKAGRQSGESGVDRYFEQQVSLAAFTDATPTTLDDIPVTWASTPARELGITLADRMMQKITHEETHSRNLIIPARLIAAK | 6.58 ± 1.8 | 4.56 | 5.27 ± 0.39 | 4.45 ± 0.36 | 2.7 ± 0.15 | 5.25 ± 0.078 | 8.757 ± 0.013 | 4.64 ± 0.33 | 8.39 ± 2.1 | 4.36 ± 0.092 | 9.01 ± 0.16 | 6.29 ± 0.064 |
| MATGTQPDAGQILNSLINSILLIDDNLAIHYANPAAQQLLAQSSRKLFGTPLPELLSYFSLNIELMQESLEAGQGFTDNEVTLVIDGRSHILSVTAQRMPDGMILLEMAPMDNQRRLSQEQLQHAQQVAARDLVRGLAHEIKNPLGGLRGAAQLLSKALPDPSLLEYTKVIIEQADRLRNLVDRLLGPQLPGTRVTESIHKVAERVVTLVSMELPDNVRLIRDYDPSLPELAHDPDQIEQVLLNIVRNALQALGPEGGEIILRTRTAFQLTLHGERYRLAARIDVEDNGPGIPPHLQDTLFYPMVSGREGGTGLGLSIARNLIDQHSGKIEFTSWPGHTEFSVYLPIRK [P0AFB5] | 5.41 ± 0.72 | 5.19 ± 0.57 | 4.938 ± 0.023 | 4.73 ± 0.11 | 3.11 ± 0.38 | 5.27 ± 0.073 | 9.99 ± 1.6 | 4.48 ± 0.38 | 8.26 ± 1 | 7.12 ± 0.5 | 11.2 ± 2.2 | 5.25 ± 0.15 |
